Experimental data reported in the supplement of paper PMC10065799, “High-throughput profiling of sequence recognition by tyrosine kinases and SH2 domains using bacterial peptide display” (eLife, 2023).

Columns and labels:
AncSZ = test: phosphorylation enrichment, bacterial display (enrichment ratio); higher = better substrate or ligand; peptides without Tyr show the background
EPHB1 = EPHB1 (UniProt P54762); test: as above
EPHB2 = EPHB2 (UniProt P29323); test: as above
FGFR1 = FGFR1 (UniProt P11362); test: as above
FGFR3 = FGFR3 (UniProt P22607); test: as above
Fer (mouse) = test: as above
Fes = Fes (UniProt P07332); test: as above
Fyn = Fyn (UniProt P06241); test: as above
Hck = Hck (UniProt P08631); test: as above
Jak2 = Jak2 (UniProt O60674); test: as above
MERTK = MERTK (UniProt Q12866); test: as above
c-Abl (mouse) = test: as above
c-Src = test: as above
Grb2 SH2 = Grb2 SH2 (UniProt P62993); test: SH2 binding enrichment of the phosphorylated peptide, bacterial display (enrichment ratio); higher = better substrate or ligand; peptides without Tyr show the background
SHP2-C SH2 = test: as above
c-Src SH2 = test: as above
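Wherever SH2 binding enrichment of the phosphorylated peptide, bacterial display is given: peptide library displayed on the E. coli surface as eCPX fusions, selected cells deep-sequenced, score is each peptide's frequency after selection divided by its frequency in the input.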
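Wherever phosphorylation enrichment, bacterial display is given: 11-residue human phosphosite peptides and single-mutation variants displayed on the E. coli surface, counted by deep sequencing, each peptide's frequency after selection divided by its frequency in the unselected input library; frequency after pTyr selection over input frequency; kinase dosed for 20-30% of maximal phosphorylation in three min.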

Chain of Fyn (P06241 whole entry, looked up): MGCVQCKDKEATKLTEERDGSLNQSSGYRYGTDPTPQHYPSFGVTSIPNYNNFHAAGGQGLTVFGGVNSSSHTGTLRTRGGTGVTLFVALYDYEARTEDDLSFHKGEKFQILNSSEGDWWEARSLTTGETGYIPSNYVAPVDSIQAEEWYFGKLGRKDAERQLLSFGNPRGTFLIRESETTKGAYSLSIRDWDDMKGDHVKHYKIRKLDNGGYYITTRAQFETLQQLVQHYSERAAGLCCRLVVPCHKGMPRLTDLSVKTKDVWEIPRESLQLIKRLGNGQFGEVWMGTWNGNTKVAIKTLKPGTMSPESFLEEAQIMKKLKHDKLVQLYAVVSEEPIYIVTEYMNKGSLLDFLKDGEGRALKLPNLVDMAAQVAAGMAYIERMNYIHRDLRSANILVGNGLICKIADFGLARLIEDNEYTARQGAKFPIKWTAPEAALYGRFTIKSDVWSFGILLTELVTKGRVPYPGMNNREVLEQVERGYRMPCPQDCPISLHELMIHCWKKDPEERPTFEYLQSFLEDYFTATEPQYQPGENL
Chain of Fes (P07332 whole entry, looked up): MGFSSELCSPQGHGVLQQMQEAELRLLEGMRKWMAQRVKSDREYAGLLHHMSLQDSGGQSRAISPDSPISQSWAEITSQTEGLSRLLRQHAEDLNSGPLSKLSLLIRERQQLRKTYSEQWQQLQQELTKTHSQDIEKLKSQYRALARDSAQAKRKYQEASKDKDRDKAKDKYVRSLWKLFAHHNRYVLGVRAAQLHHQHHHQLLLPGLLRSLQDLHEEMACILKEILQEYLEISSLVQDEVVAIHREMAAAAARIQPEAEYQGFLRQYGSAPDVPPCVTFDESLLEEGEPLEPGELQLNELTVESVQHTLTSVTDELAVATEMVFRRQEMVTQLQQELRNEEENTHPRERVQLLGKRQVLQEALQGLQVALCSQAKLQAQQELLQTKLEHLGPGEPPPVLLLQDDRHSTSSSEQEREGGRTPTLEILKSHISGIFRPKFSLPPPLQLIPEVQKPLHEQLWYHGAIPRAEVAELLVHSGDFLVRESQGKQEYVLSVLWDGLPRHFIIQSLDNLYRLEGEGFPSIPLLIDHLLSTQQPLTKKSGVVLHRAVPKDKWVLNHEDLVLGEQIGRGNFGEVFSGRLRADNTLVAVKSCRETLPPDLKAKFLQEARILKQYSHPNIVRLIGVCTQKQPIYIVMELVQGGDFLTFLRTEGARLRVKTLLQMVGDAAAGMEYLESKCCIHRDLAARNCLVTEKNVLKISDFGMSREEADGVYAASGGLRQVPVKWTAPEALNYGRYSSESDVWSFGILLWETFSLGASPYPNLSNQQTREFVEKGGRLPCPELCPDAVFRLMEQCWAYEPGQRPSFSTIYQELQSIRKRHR
Chain of EPHB2 (P29323 whole entry, looked up): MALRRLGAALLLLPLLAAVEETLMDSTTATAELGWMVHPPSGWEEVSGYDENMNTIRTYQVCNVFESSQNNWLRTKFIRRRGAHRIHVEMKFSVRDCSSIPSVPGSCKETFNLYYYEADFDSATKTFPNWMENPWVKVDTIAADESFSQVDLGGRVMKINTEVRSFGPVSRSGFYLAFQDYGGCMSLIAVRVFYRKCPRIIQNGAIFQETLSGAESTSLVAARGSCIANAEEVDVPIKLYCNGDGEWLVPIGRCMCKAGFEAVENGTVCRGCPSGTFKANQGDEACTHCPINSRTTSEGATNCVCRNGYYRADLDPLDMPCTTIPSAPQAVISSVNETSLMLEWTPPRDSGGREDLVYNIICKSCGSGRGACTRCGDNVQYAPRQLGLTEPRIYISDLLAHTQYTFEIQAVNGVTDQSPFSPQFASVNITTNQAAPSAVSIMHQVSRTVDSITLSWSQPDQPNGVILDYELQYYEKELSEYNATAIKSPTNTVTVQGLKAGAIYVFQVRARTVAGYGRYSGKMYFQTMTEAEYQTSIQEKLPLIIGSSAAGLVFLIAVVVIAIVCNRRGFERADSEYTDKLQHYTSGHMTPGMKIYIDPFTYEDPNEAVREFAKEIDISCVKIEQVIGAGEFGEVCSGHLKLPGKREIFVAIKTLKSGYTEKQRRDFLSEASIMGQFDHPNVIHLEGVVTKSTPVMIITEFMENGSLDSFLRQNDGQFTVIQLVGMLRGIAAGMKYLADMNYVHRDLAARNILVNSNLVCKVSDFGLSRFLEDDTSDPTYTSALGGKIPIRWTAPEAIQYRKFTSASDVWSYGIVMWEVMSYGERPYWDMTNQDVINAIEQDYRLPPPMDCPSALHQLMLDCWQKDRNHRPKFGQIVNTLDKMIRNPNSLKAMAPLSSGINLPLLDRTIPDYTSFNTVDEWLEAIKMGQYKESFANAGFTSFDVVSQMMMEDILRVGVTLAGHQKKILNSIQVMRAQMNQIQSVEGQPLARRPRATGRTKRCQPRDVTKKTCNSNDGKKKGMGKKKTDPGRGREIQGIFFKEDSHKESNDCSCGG
Chain of MERTK (Q12866 whole entry, looked up): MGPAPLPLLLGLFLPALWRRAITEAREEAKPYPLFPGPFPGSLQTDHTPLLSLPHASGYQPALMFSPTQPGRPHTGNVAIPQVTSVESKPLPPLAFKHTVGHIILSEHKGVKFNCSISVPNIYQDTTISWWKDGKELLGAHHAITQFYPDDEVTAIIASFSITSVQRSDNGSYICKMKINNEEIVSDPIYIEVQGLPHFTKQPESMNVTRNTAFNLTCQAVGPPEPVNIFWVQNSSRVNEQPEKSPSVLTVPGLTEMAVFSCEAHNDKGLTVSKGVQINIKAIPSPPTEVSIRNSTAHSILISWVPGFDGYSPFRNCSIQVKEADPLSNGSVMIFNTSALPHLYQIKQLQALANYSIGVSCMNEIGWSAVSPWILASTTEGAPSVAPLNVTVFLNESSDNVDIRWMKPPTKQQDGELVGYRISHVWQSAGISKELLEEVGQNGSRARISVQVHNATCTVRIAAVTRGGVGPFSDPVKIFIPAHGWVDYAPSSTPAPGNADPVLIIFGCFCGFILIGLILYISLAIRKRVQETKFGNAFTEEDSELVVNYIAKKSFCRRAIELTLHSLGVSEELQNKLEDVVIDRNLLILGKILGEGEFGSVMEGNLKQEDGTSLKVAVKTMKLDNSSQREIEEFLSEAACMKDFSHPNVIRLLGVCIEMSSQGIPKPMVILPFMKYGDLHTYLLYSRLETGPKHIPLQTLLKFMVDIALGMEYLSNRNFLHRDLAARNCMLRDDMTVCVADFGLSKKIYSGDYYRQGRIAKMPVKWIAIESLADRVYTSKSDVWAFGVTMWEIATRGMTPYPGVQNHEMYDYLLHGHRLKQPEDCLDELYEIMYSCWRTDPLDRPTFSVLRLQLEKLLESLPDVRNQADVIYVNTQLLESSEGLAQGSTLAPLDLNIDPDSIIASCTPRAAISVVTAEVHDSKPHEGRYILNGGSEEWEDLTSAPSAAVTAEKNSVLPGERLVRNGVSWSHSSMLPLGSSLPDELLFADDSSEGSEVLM
Chain of Grb2 SH2 (P62993 whole entry, looked up): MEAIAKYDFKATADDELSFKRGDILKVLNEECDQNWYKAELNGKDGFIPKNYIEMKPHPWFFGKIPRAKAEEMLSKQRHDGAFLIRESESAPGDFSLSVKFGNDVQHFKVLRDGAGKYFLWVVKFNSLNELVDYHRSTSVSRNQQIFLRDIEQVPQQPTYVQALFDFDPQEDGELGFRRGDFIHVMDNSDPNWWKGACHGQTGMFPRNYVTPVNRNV
Chain of EPHB1 (P54762 whole entry, looked up): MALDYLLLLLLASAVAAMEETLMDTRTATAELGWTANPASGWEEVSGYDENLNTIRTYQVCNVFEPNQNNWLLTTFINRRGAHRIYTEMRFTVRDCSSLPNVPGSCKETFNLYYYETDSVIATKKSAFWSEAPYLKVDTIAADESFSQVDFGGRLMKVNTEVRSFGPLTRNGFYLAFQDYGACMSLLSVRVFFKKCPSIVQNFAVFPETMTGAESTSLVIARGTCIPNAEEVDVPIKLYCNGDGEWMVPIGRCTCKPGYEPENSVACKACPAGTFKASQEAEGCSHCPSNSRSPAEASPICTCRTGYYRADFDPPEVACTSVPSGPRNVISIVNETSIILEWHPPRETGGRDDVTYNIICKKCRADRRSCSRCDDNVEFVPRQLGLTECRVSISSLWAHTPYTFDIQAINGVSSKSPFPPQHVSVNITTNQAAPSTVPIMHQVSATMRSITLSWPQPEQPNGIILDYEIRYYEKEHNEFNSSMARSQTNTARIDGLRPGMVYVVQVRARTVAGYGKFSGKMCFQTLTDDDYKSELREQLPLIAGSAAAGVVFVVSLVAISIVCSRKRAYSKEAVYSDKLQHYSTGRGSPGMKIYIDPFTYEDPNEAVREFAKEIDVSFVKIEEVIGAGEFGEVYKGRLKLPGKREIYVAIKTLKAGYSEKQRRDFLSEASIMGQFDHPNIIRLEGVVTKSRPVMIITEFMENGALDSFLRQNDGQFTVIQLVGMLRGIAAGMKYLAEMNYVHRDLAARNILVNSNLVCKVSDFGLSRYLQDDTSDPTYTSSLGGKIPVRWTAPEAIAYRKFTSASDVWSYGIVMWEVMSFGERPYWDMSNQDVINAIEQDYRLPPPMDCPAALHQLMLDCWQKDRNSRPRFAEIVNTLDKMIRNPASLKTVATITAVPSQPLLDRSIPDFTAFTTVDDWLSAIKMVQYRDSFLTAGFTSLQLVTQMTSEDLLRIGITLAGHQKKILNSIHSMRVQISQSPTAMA

Sequence	phosphorylation enrichment (AncSZ)	phosphorylation enrichment (EPHB1)	phosphorylation enrichment (EPHB2)	phosphorylation enrichment (FGFR1)	phosphorylation enrichment (FGFR3)	phosphorylation enrichment (Fer (mouse))	phosphorylation enrichment (Fes)	phosphorylation enrichment (Fyn)	phosphorylation enrichment (Hck)	phosphorylation enrichment (Jak2)	phosphorylation enrichment (MERTK)	phosphorylation enrichment (c-Abl (mouse))	phosphorylation enrichment (c-Src)	SH2 binding enrichment (Grb2 SH2)	SH2 binding enrichment (SHP2-C SH2)	SH2 binding enrichment (c-Src SH2)
EPSVPYRGTVF [GLI3_Y104]	0.566	0.447	0.567	0.447	0.478	0.424	0.698	0.545	0.441	0.783	0.487	0.534	0.46	0.803	0.711	0.491
DNLSNYVFQGQ [GRIN2A_Y978_N976S]	0.71	2.09	1.22	0.571	0.611	0.416	0.796	0.475	0.41	0.783	0.618	0.546	0.454	0.904	0.818	0.601
KKRRSYGNSSD [SELENOK_Y52]	0.554	0.472	0.394	0.383	0.395	0.417	0.582	0.448	0.511	0.475	0.51	0.479	0.525	0.601	0.525	0.376
EIPTQYEAMAS [GFAP_Y242_R239P]	0.982	0.853	0.577	0.536	0.694	0.662	1.04	0.487	0.596	0.802	0.445	0.615	0.405	0.674	0.629	2.5
IPVNGYQPVPA [ROR2_Y824_V819I]	0.582	0.385	0.467	0.36	0.523	0.337	0.633	0.429	0.513	0.533	0.899	0.592	0.472	0.934	0.692	0.756
RKKEEYKMALF [F8_Y1990_YF]	0.759	0.734	0.738	0.4	0.607	0.494	0.708	0.31	0.465	0.691	0.391	0.72	0.555	1.09	1.21	0.846
GGQEDYDRLRP [RAC3_Y64_A59G]	1.17	0.566	0.691	0.528	0.624	0.522	0.948	0.458	0.759	0.861	0.461	0.616	0.494	0.821	0.767	0.591
FPHVIYARLWR [SMAD4_Y95]	0.917	3.11	1.16	0.567	0.648	0.539	0.85	5.08	5.38	0.751	1.5	10.1	5.17	0.767	0.61	0.425
KELANYFKLHH [AK7_Y390_YF]	0.644	0.727	0.537	1.15	0.83	0.442	0.877	0.567	0.486	1.68	0.545	0.439	0.481	0.945	0.949	0.516
SLIDGYYRLTE [JAK2_Y372_A377E]	1.17	0.521	0.531	1.11	0.997	0.425	1.1	0.427	0.583	5.79	0.441	0.533	0.639	0.843	1.21	2.49
RSIGEYDVLRG [PRKDC_Y2936]	0.795	0.738	0.779	0.36	0.394	0.428	0.786	0.671	3.99	0.73	0.536	1.55	0.974	0.662	0.587	1.65
FRTGHYLCNAC [GATA1_Y223_D218Y_YF]	0.62	0.479	0.484	0.566	0.625	0.363	0.634	0.44	0.443	0.53	0.399	0.393	0.401	1.14	1.07	0.743
QGLRLYRPHLA [BTK_Y617]	1.16	0.515	0.697	0.501	0.76	0.542	1.12	0.461	0.437	1.15	0.382	0.775	0.438	1.4	1.04	0.988
AFQGKYTPSGQ [ALDOA_Y343_C339Y_YF]	0.388	0.376	0.276	0.309	0.328	0.253	0.446	0.273	0.266	0.547	0.346	0.432	0.298	0.759	0.803	0.592
SGPRRYTMAAL [TTR_Y125_I127M]	0.677	0.396	0.466	0.423	0.459	0.383	0.611	0.416	0.488	0.601	0.44	0.555	0.533	0.787	0.505	0.487
KDHPDYKYQPR [SOX10_Y171]	0.668	0.362	0.381	0.492	0.481	0.435	0.595	0.458	0.463	0.509	0.387	0.687	0.412	1.04	0.77	0.619
FARNSYVAGQF [G6PD_Y107_YF]	0.662	0.321	0.398	0.503	0.522	0.36	0.712	0.489	0.501	0.522	0.427	0.442	0.408	0.81	0.517	0.442

Sequence	phosphorylation enrichment (AncSZ)	phosphorylation enrichment (EPHB1)	phosphorylation enrichment (EPHB2)	phosphorylation enrichment (FGFR1)	phosphorylation enrichment (FGFR3)	phosphorylation enrichment (Fer (mouse))	phosphorylation enrichment (Fes)	phosphorylation enrichment (Fyn)	phosphorylation enrichment (Hck)	phosphorylation enrichment (Jak2)	phosphorylation enrichment (MERTK)	phosphorylation enrichment (c-Abl (mouse))	phosphorylation enrichment (c-Src)	SH2 binding enrichment (Grb2 SH2)	SH2 binding enrichment (SHP2-C SH2)	SH2 binding enrichment (c-Src SH2)
PYIDSYEKDVA [PGM1_Y521_L516P]	1.66	0.907	0.857	0.907	1.08	0.852	1.48	0.684	0.725	1.61	0.763	0.961	0.703	0.802	0.724	0.647
TLLSAYQIPRT [GAB2_Y324_P320L]	0.729	0.55	0.42	0.418	0.531	0.545	0.74	0.387	0.533	0.68	1.18	9.51	0.435	0.91	0.73	0.786
FGSGNYNVFGN [HNRNPA2B1_Y300_D302V_YF]	0.575	0.481	0.476	0.483	0.434	0.338	0.508	0.396	0.423	0.449	0.406	0.328	0.412	0.766	0.805	0.682
QLCVSYPGGFT [PROS1_Y259_N258S_YF]	1.12	0.481	0.546	0.496	0.892	0.775	1.47	0.663	0.682	1.45	0.578	1.24	0.658	0.711	0.687	0.535
LEAVSYSSRYA [RNLS_Y190]	0.687	0.453	0.446	0.415	0.462	0.433	0.704	0.389	0.437	0.685	0.63	0.459	0.368	0.772	0.748	0.498
PFRKLYESVKK [MKI67_Y241_W238R]	0.931	0.516	0.368	2.28	0.685	0.458	0.695	0.454	0.563	1.16	0.612	1	0.491	0.973	0.711	0.714
PTTKTYFPRFD [HBA1_Y43_H46R]	0.569	0.493	0.421	0.455	0.432	0.505	0.772	0.319	0.38	0.731	0.373	0.609	0.421	0.819	0.91	0.446
SIVEDYRPPFY [ACVRL1_Y421_G416S]	1.22	0.785	0.551	0.552	0.743	0.804	1.25	0.483	0.427	1.1	0.496	0.995	0.472	0.599	0.622	0.462
HSDYQYSQRSQ [PKP2_Y168]	0.821	0.495	0.645	0.344	0.377	0.365	0.587	0.39	0.353	1.11	0.501	0.749	0.519	0.91	0.587	0.484
QGCSIYKDYYR [PLA2G2D_Y82]	1.29	1.68	0.734	1.27	1.57	0.724	1.47	3.56	2.92	1.08	0.67	0.731	4.85	1.02	0.813	0.738
RRAVKYLQMVG [AVPR2_Y117_C112R]	1.13	0.815	1.01	0.52	0.629	0.431	0.978	0.778	0.674	0.887	0.727	0.961	0.737	0.84	0.695	0.525
GPRSLYNGLVA [UCP2_Y79]	0.488	0.385	0.36	0.396	0.486	0.386	0.543	0.427	1.45	0.502	0.381	0.555	0.509	0.776	0.661	0.621
FRAPGYREVVI [TNS2_Y673_YF]	0.52	0.466	0.422	0.502	0.446	0.325	0.618	0.399	0.416	0.55	0.467	0.525	0.409	0.942	1.13	0.667
LVPAWYIGFLC [KCNQ2_Y237_T234P]	1.25	0.599	0.625	0.502	0.812	0.56	1.28	0.487	0.516	1.1	0.361	0.804	0.51	0.968	0.844	0.543
SDYYAYSPVQE [H6PD_Y449_R453Q]	6.17	16.4	21.6	15.8	14.9	10.7	0.952	8.25	6.3	9.08	9.08	8.16	5.44	1.01	0.971	1.3
TWSSSYRSDRL [CRYBB1_Y131]	0.682	0.441	0.608	0.398	0.389	0.477	1.07	0.456	0.419	0.621	0.448	0.593	0.451	0.997	0.722	0.473
